Source: patent US20260209285A1, “SWEET-TASTING PROTEIN BRAZZEIN MUTANT HAVING HIGH SWEETNESS AND PREPARATION METHOD THEREFOR” (NANJING BESTZYME BIO-ENGINEERING CO., LTD., priority 2022, published 2026)
Read-outs that look alike come from different tables or passages of the source.

Assays:
[1] = system: healthy evaluators; details: 1% sucrose solution used as minimum concentration at which sweetness is felt; cited from earlier work
[2] = cited from earlier work; for sweetness relative to sucrose of the same weight: calculated by weight, prior art; for sweetness delay: prior art CN 102498126 A
[3] = system: healthy evaluators; assay: Determination of sweetness threshold by human sensory evaluation; assay type: in vivo; details: for Sweetness fold relative to 1% sucrose: =10000/(sample sweetness threshold); for Concentration (μg/mL) corresponding to threshold: sweetness threshold, protein diluted with mineral water (pH 6.9), averaged for 10 individuals
Description: Since the recombinant Brazzein of the present disclosure is not a sugar-based compound, it is impossible to measure the sweetness by using a saccharometer. Therefore, the sweetness threshold is measured using human sensory evaluation. For most people, the sweetness threshold for sugar in soft drinks is 0.32%-1.0%. To assess the sweetness threshold for each solution, an 1% sucrose solution is used as the solution with minimum concentration at which sweetness is felt, i.e., the sweetness threshold is 10000 μg/mL The sweetness potency of the Brazzein described herein relative to sucrose is generally in a range of 1:500 to 1:16,000. The samples tested included naturally extracted Brazzein (homemade, about 95% pure), recombinant Brazzein and mutants thereof, sucrose and mineral water. The protein was diluted in a gradient from 0.5 to 20 μg/ml by diluting the dry protein powder with mineral water (pH 6.9). Ten healthy evaluators (five males and five females) aged between 30 and 50 participated in the assessment, five of whom were trained wine tasters. Tasting started at the lowest concentration, with concentration increased by 1 μg/ml each time until sweetness was felt; then based on this concentration, the concentration was reduced by 0.1 μg/ml at a time until sweetness was not felt; and the sweetness threshold of the sample was determined by gradually decreasing the concentration gradient in such a way. 20 ml of samples were tested randomly compared to sugar solutions. Before each analysis, the evaluator was asked to rinse his/her mouth with water and eat the neutral crackers until there was no residual taste. The test solution was held in oral cavity for at least 10 seconds. Thereafter, evaluators provided scores against samples on the basis of their responses between 0 and 10; 0—no sweet feeling, 10—highly sweet. The final results for each protein were averaged for 10 individuals. The sweetness factor of Brazzein and mutants thereof relative to 1% sucrose=10000/(sample sweetness threshold).

[4] = aqueous solution, 80° C. for 4 hours; cited from earlier work

Molecule | Sweetness fold relative to 1% sucrose [3] | Concentration (μg/mL) corresponding to threshold [3] | also measured
OC[C@H]1O[C@@](CO)(O[C@H]2O[C@H](CO)[C@@H](O)[C@H](O)[C@H]2O)[C@@H](O)[C@@H]1O [sucrose] | – | – | sweetness threshold of sucrose (reference) [1]: 10000 µg/mL
Brazzein | – | – | sweetness relative to sucrose of the same weight ([2]; listed as Brazzein expressed in an Aspergillus oryzae host in patent CN102498126A): 510 times; sweetness relative to sucrose of the same weight ([2]; listed as expressed Brazzein): about 510 times; sweetness delay [2]: about 1.5 seconds; sweetness delay ([2]; listed as expressed Brazzein): obvious sweetness delay
Brazzein (QDKCKKVYENYPVSKCQLANQCNYDCKLDKHARSGECFYDEKRNLQCICDYCEY; UniProt P56552 1-54, looked up) [Naturally extracted Brazzein, naturally extracted Brazzein (homemade, about 95% pure), reference compound] | 501 fold | 20 ± 3.9 µg/mL | –
Brazzein [Brazzein expressed by Pichia pastoris] | – | – | sweetness relative to sucrose of the same weight [2]: 40 times
Brazzein [Brazzein] (DKCKKVYENYPVSKCQLANQCNYDCKLDKHARSGECFYDEKRNLQCICDYCEY; listed as Pentadiplandra brazzeana) [sweet protein extracted from fruits of Pentadiplandra brazzeana (Baillon), 54 amino acids, 6.5 kDa] | – | – | sweetness after heat treatment [4]: remains sweet
ROLpro-BXT-D1: BXT-D1 expressed fused to leader peptide ROLpro, SEQ ID NO: 21; leader removed by cleavage (protein, ROLpro leader removed by cleavage) DDNLVGGMTLDLPSDAPPISLSSSTNSAVALEKRDKCKKVYENYPVSKCQLANQCNYDCKLDKHARSGDCFYDAKRNLQCICDYCEY | 6666.7 fold | 1.5 ± 0.3 µg/mL | –
ROLpro-BXT-D2: BXT-D2 expressed fused to leader peptide ROLpro, SEQ ID NO: 23; leader removed by cleavage (protein, ROLpro leader removed by cleavage) DDNLVGGMTLDLPSDAPPISLSSSTNSAVALEKRDKCKKVYENYPVSKCQLANQCNYDCKLDKHARSGDCFYDDKRNLQCICDYCEY | 3703.7 fold | 2.7 ± 0.5 µg/mL | –
ROLpro-BXT-D7: BXT-D7 expressed fused to leader peptide ROLpro, SEQ ID NO: 33; leader removed by cleavage (protein, ROLpro leader removed by cleavage) DDNLVGGMTLDLPSDAPPISLSSSTNSAVALEKRDKCKKVYENYPVSKCQLANQCNYDCKLDKRARSGDCFYDRKRNLQCICDYCEY | 16666.7 fold | 0.6 ± 0.1 µg/mL | –
ROLpro-BXT-D6: BXT-D6 expressed fused to leader peptide ROLpro, SEQ ID NO: 31; leader removed by cleavage (protein, ROLpro leader removed by cleavage) DDNLVGGMTLDLPSDAPPISLSSSTNSAVALEKRDKCKKVYENYPVSKCQLANQCNYDCKLDKRARSGDCFYDKKRNLQCICDYCEY | 16666.7 fold | 0.6 ± 0.1 µg/mL | –
ROLpro-BXT: Brazzein BXT expressed fused to Rhizopus oryzae lipase leader peptide ROLpro with kex2 site, SEQ ID NO: 19; leader removed by cleavage (protein, ROLpro leader removed by kex2 cleavage) DDNLVGGMTLDLPSDAPPISLSSSTNSAVALEKRDKCKKVYENYPVSKCQLANQCNYDCKLDKHARSGECFYDEKRNLQCICDYCEY | 613.5 fold | 16.3 ± 2.9 µg/mL | –
ROLpro-BXT-D4: BXT-D4 expressed fused to leader peptide ROLpro, SEQ ID NO: 27; leader removed by cleavage (protein, ROLpro leader removed by cleavage) DDNLVGGMTLDLPSDAPPISLSSSTNSAVALEKRDKCKKVYENYPVSKCQLANQCNYDCKLDKHARSGDCFYDRKRNLQCICDYCEY | 8333.3 fold | 1.2 ± 0.2 µg/mL | –
ROLpro-BXT-D3: BXT-D3 expressed fused to leader peptide ROLpro, SEQ ID NO: 25; leader removed by cleavage (protein, ROLpro leader removed by cleavage) DDNLVGGMTLDLPSDAPPISLSSSTNSAVALEKRDKCKKVYENYPVSKCQLANQCNYDCKLDKHARSGDCFYDKKRNLQCICDYCEY | 6250 fold | 1.6 ± 0.3 µg/mL | –
ROLpro-BXT-D5: BXT-D5 expressed fused to leader peptide ROLpro, SEQ ID NO: 29; leader removed by cleavage (protein, ROLpro leader removed by cleavage) DDNLVGGMTLDLPSDAPPISLSSSTNSAVALEKRDKCKKVYENYPVSKCQLANQCNYDCKLDKRARSGDCFYDAKRNLQCICDYCEY | 8333.3 fold | 1.2 ± 0.2 µg/mL | –
